Target: the molecule itself
Experiment: SEC-MALS

B1: untagged full-length human 14-3-3γ (natural protein, UniProt P61981 1-247, looked up)
chain: MVDREQLVQKARLAEQAERYDDMAAAMKNVTELNEPLSNEERNLLSVAYKNVVGARRSSWRVISSIEQKTSADGNEKKIEMVRAYREKIEKELEAVCQDVLSLLDNYLIKNCSETQYESKVFYLKMKGDYYRYLAEVATGEKRATVVESSEKAYSEAHEISKEHMQPTHPIRLGLALNYSVFYYEIQNAPEQACHLAKTAFDDAIAELDTLNEDSYKDSTLIMQLLRDNLTLWTSDQQDDDGGEGNN
notes: human 14-3-3 protein gamma, full length, untagged
  stoichiometry N: 2

Reference: publication PMC7863765 (Journal of Molecular Biology, 2021)
